This data set addresses T1, GP-NRSF1-8 (UniProt Q13127).
T1 sequence: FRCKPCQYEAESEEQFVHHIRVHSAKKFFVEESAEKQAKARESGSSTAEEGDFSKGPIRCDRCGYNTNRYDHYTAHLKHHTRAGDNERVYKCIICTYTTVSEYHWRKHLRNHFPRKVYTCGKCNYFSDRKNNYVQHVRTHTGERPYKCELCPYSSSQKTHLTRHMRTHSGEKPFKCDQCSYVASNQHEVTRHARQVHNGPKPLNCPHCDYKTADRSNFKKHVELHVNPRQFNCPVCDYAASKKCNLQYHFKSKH
As to the kind of experiment: one_hybrid. The settings on record: bacterial two-hybrid lacZ reporter; nearly 7-fold vs Gal11P only.

consensus NRSE (21 bp): the activity (fold activation) came out at 7.

Source of the values: US20060246440.
